Test results: US20080286815A1, “SPECTROPHOTOMETRIC ASSAY FOR HUMAN HISTONE DEACETYLASE 8” (THE UNIVERSITY OF AKRON, priority 2007, published 2008)

Substrate: CSCC[C@H](NC(=O)[C@H](CC(C)C)NC(=O)[C@H](CCCC/N=C(/C)S)NC(=O)[C@H](CCCCN)NC(=O)[C@H](Cc1c[nH]cn1)NC(=O)[C@H](CCCN=C(N)N)NC(=O)[C@H](CO)NC(=O)[C@@H](NC(=O)[C@H](CO)NC(=O)[C@H](CCC(N)=O)NC(=O)CNC(=O)[C@H](CCCCN)NC(=O)[C@@H](N)CCCCN)[C@@H](C)O)C(=O)N[C@@H](Cc1ccccc1)C(=O)N[C@@H](CCCCN)C(=O)N[C@H](C(=O)N[C@@H](CCC(=O)O)C(=O)NCC(=O)O)[C@@H](C)O
Experiment: DTNB-based enzymatic assay with purified HDAC8
Format: biochemical, human
Conditions: other: peptide as in vitro HDAC8 substrate, 375 nM HDAC8, room temperature, 1 hour, pH 6.8
Description: DTNB-based enzymatic assay. The DTNB data shown in FIG. 4 was generated using the following procedure. A second portion (300 µL) of the above HDAC8 assay mixture was quenched with 600 µL of the stop solution: 3.2 M guanidinium chloride in 100 mM of sodium phosphate (pH 6.8), and was analyzed by the DTNB-based assay procedure according to the invention, i.e. 60 min after the quench and DTNB (100 µL) addition, A412 was recorded for each sample derived at different time points of the same assay reaction. Again, the same assay protocol was used when the HeLa nuclear extracts were used instead of human HDAC8. To measure the kinetic parameters for the thioacetyl-lysine p53 peptide as an in vitro HDAC8 substrate, all the assay reactions contained 375 nM of HDAC8, a range of substrate concentrations varied around the Km value, and were allowed to proceed at room temperature for 1 hour before quenching. Reaction velocities were determined under initial condition (substrate turnover <10%). This experiment was performed twice, and each duplicate measurement agreed within 20%. By using a non-linear least squares approach with the computer program Kaleidagraph (Reading, Pa., USA), kinetic parameters (kcat and Km) were derived from the Michaelis-Menten plot based on the experimental data.
Assay with purified HDAC8. […]

B1: human HDAC8 (Homo sapiens) (protein)
chain: MEEPEEPADSGQSLVPVYIYSPEYVSMCDSLAKIPKRASMVHSLIEAYALHKQMRIVKPKVASMEEMATFHTDAYLQHLQKVSQEGDDDHPDSIEYGLGYDCPATEGIFDYAAAIGGATITAAQCLIDGMCKVAINWSGGWHHAKKDEASGFCYLNDAVLGILRLRRKFERILYVDLDLHHGDGVEDAFSFTSKVMTVSLHKFSPGFFPGTGDVSDVGLGKGRYYSVNVPIQDGIQDEKYYQICESVLKEVYQAFNPKAVVLQLGADTIAGDPMCSFNMTPVGIGKCLKYILQWQLATLILGGGGYNLANTARCWTYLTGVILGKTLSSEIPDHEFFTAYGPDYVLEITPSCRPDRNEPHRIQQILNYIKGNLKHVV
  Km: 33.7 ± 7.2 µM
  kcat: 0.26 ± 0.02 min⁻¹
